Laboratory results taken from US20170129962A1 (Hoffmann-La Roche, published 2017).

Assays:
[1] = target: T1, human VEGFA-121 (VEGF-A-121-His) (human, UniProt P15692-9 27-147); assay: SPR (Biacore T200), VEGF-A-121-His captured by anti-His antibody, bispecific antibody as analyte, 1:1 Langmuir
T1 construct: Captured on the chip through an anti-His antibody; not shown: His tag
T1 sequence (looked up): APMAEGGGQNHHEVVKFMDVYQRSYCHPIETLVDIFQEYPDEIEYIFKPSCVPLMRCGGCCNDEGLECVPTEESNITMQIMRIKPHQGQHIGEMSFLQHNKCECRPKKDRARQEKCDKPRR
Experimental: Around 10000 (RU) of anti His antibody (1 μg/ml anti His antibody; Order Code: 28995056; GE Healthcare Bio-Sciences AB, Sweden) were coupled on a Series S CM5 chip (GE Healthcare BR-1005-30) at pH 5.0 by using an amine coupling kit supplied by the GE Healthcare. HBS-N (10 mM HEPES, 150 mM NaCl pH 7.4, GE Healthcare) was used as running buffer during the immobilization procedure. For the following kinetic characterization, sample and running buffer was PBS-T (10 mM phosphate buffered saline including 0.05% Tween20) at pH 7.4. The flow cell was set to 25° C.—and the sample block set to 12° C.—and primed with running buffer twice prior to kinetic characterization.
(§1) Binding of the multispecific antibodies to their respective target antigens, i.e. ANG2 and VEGF, was assessed by Biacore® as described in the general methods section.

human Ang-2-RBD-Fc [2] = target: T2, human Ang-2-RBD-Fc (human, UniProt O15123 275-496, limits assumed); assay: SPR (Biacore T200), bispecific antibody captured by anti-human F(ab')2, Ang2-RBD-Fc as analyte, 1:1 Langmuir, apparent KD
T2 construct: domain: RBD; Analyte in solution; not shown: Fc part
T2 sequence (looked up): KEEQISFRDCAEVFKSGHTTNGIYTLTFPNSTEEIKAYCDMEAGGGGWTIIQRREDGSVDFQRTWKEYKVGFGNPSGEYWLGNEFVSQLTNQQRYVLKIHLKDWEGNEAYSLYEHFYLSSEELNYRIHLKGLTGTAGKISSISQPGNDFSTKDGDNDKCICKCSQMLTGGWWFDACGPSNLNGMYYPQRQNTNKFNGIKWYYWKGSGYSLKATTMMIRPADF
Experimental: (§2) Binding of indicated antibodies to human Ang-2-RBD-Fc was investigated by surface plasmon resonance using a BIACORE® T200 instrument (GE Healthcare). Around 8000 (RU) of goat anti human F(ab′)₂ (10 μg/ml anti human F(ab)′₂; Order Code: 28958325; GE Healthcare Bio-Sciences AB, Sweden) were coupled on a Series S CMS chip (GE Healthcare BR-1005-30) at pH 5.0 by using an amine coupling kit supplied by the GE Healthcare. HBS-N (10 mM HEPES, 150 mM NaCl pH 7.4, GE Healthcare) was used as running buffer during the immobilization procedure. For the following kinetic characterization, sample and running buffer was PBS-T (10 mM phosphate buffered saline including 0.05% Tween20) at pH 7.4. The flow cell was set to 25° C.—and the sample block set to 12° C.—and primed with running buffer twice prior to kinetic characterization.
(§3) The bispecific antibody was captured by injecting a 5 nM solution for 25 sec at a flow of 5 μl/min. The association was measured by injection of human Ang2-RBD-Fc in various concentrations in solution for 120 sec at a flow of 30 μl/min starting with 100 nM in 1:3 serial dilutions. The dissociation phase was monitored for up to 180 sec and triggered by switching from the sample solution to running buffer. The surface was regenerated by 60 sec washing with a Glycine pH 2.1 solution at a flow rate of 30 μl/min. Bulk refractive index differences were corrected by subtracting the response obtained from a goat anti human F(ab′)₂ surface. Blank injections are also subtracted (=double referencing). For calculation of apparent KD the Langmuir 1:1 model was used.

human Ang-2-RBD-Fc [3] = target: T2, human Ang-2-RBD-Fc; assay: SPR (Biacore T200), bispecific antibody captured by anti-human F(ab')2, Ang2-RBD-Fc as analyte, 1:1 Langmuir
Experimental: as §2, §3, §1

Row | Binder | Kd [1] [nM] | koff [1] [s⁻¹] | kon [1] [M⁻¹ s⁻¹] | Kd (human Ang-2-RBD-Fc [2]) [nM] | koff (human Ang-2-RBD-Fc [3]) [s⁻¹] | kon (human Ang-2-RBD-Fc [3]) [M⁻¹ s⁻¹]
1 | Ang2VEGF-0464 (bispecific antibody, human IgG1, kappa, CrossMAb CH1-CL, knob-into-hole with S354C/Y349C; also called Ang2VEGF-0464-0002) light 1: QPGLTQPPSVSVAPGQTARITCGGNNIGSKSVHWYQEKPGQAPVLVVYDDSDRPSGIPERFSGSNSGNTATLTISRVEAGDEADYYCQVWDSSSDHYVFGTGTKVTVLRTVAAPSVFIFPPSDKKLKSGTASVVCLLNNFYPREAKVQWKVDNALQSGNSQESVTEQDSKDSTYSLSSTLTLSKADYEKHKVYACEVTHQGLSSPVTKSFNRGEC heavy 1: not shown light 2: DIQMTQSPSSLSASVGDRVTITCSASQDISNYLNWYQKKPGKAPKVLIYFTSSLHSGVPSRFSGSGSGTDFTLTISSLQPEDFATYYCQQYSTVPWTFGQGTKVEIKSSASTKGPSVFPLAPSSKSTSGGTAALGCLVKDYFPEPVTVSWNSGALTSGVHTFPAVLQSSGLYSLSSVVTVPSSSLGTQTYICNVNHKPSNTKVDKKVEPKSC heavy 2: not shown | 5 | 7.54e-05 | 16600 | 2 | 0.0172 | 8.81e+06
2 | Ang2VEGF-0477 (bispecific antibody, human IgG1, kappa, CrossMAb CH1-CL, knob-into-hole with S354C/Y349C) light 1: QPGLTQPPSVSVAPGQTARITCGGNNIGSKSVHWYQQKPGQAPVLVVYDDSDRPSGIPERFSGSNSGNTATLTISRVEAGDEADYYCQVWDSSSDHYVFGTGTKVTVLRTVAAPSVFIFPPSDEKLKSGTASVVCLLNNFYPREAKVQWKVDNALQSGNSQESVTEQDSKDSTYSLSSTLTLSKADYEKHKVYACEVTHQGLSSPVTKSFNRGEC heavy 1: not shown light 2: DIQMTQSPSSLSASVGDRVTITCSASQDISNYLNWYQQKPGKAPKVLIYFTSSLHSGVPSRFSGSGSGTDFTLTISSLQPEDFATYYCQQYSTVPWTFGQGTKVEIKSSASTKGPSVFPLAPSSKSTSGGTAALGCLVKDYFPEPVTVSWNSGALTSGVHTFPAVLQSSGLYSLSSVVTVPSSSLGTQTYICNVNHKPSNTKVDKKVEPKSC heavy 2: not shown | 3 | 6.1e-05 | 19500 | 4 | 0.00823 | 2.19e+06
3 | Ang2VEGF-0474 (bispecific antibody, human IgG1, kappa, CrossMAb CH1-CL, knob-into-hole with S354C/Y349C) light 1: QPGLTQPPSVSVAPGQTARITCGGNNIGSKSVHWYQQKPGQAPVLVVYDDSDRPSGIPERFSGSNSGNTATLTISRVEAGDEADYYCQVWDSSSDHYVFGTGTKVTVLRTVAAPSVFIFPPSDEKLKSGTASVVCLLNNFYPREAKVQWKVDNALQSGNSQESVTEQDSKDSTYSLSSTLTLSKADYEKHKVYACEVTHQGLSSPVTKSFNRGEC heavy 1: not shown light 2: DIQMTQSPSSLSASVGDRVTITCSASQDISNYLNWYQQKPGKAPKVLIYFTSSLHSGVPSRFSGSGSGTDFTLTISSLQPEDFATYYCQQYSTVPWTFGQGTKVEIKSSASTKGPSVFPLAPSSKSTSGGTAALGCLVKDYFPEPVTVSWNSGALTSGVHTFPAVLQSSGLYSLSSVVTVPSSSLGTQTYICNVNHKPSNTKVDKKVEPKSC heavy 2: not shown | 3 | 5.41e-05 | 21300 | 5 | 0.0097 | 2.04e+06
4 | Ang2VEGF-0465 (bispecific antibody, human IgG1, kappa, CrossMAb CH1-CL, knob-into-hole with S354C/Y349C; also called Ang2VEGF-0465-0002) light 1: QPGLTQPPSVSVAPGQTARITCGGNNIGSKSVHWYQKKPGQAPVLVVYDDSDRPSGIPERFSGSNSGNTATLTISRVEAGDEADYYCQVWDSSSDHYVFGTGTKVTVLRTVAAPSVFIFPPSDKKLKSGTASVVCLLNNFYPREAKVQWKVDNALQSGNSQESVTEQDSKDSTYSLSSTLTLSKADYEKHKVYACEVTHQGLSSPVTKSFNRGEC heavy 1: not shown light 2: DIQMTQSPSSLSASVGDRVTITCSASQDISNYLNWYQKKPGKAPKVLIYFTSSLHSGVPSRFSGSGSGTDFTLTISSLQPEDFATYYCQQYSTVPWTFGQGTKVEIKSSASTKGPSVFPLAPSSKSTSGGTAALGCLVKDYFPEPVTVSWNSGALTSGVHTFPAVLQSSGLYSLSSVVTVPSSSLGTQTYICNVNHKPSNTKVDKKVEPKSC heavy 2: not shown | 5 | 7.96e-05 | 16000 | 3 | 0.0325 | 1.17e+07
5 | Ang2VEGF-0476 (bispecific antibody, human IgG1, kappa, CrossMAb CH1-CL, knob-into-hole with S354C/Y349C) light 1: QPGLTQPPSVSVAPGQTARITCGGNNIGSKSVHWYQQKPGQAPVLVVYDDSDRPSGIPERFSGSNSGNTATLTISRVEAGDEADYYCQVWDSSSDHYVFGTGTKVTVLRTVAAPSVFIFPPSDEELKSGTASVVCLLNNFYPREAKVQWKVDNALQSGNSQESVTEQDSKDSTYSLSSTLTLSKADYEKHKVYACEVTHQGLSSPVTKSFNRGEC heavy 1: not shown light 2: DIQMTQSPSSLSASVGDRVTITCSASQDISNYLNWYQQKPGKAPKVLIYFTSSLHSGVPSRFSGSGSGTDFTLTISSLQPEDFATYYCQQYSTVPWTFGQGTKVEIKSSASTKGPSVFPLAPSSKSTSGGTAALGCLVKDYFPEPVTVSWNSGALTSGVHTFPAVLQSSGLYSLSSVVTVPSSSLGTQTYICNVNHKPSNTKVDEKVEPKSC heavy 2: not shown | 4 | 6.94e-05 | 18500 | 9 | 0.0114 | 1.32e+06

Further binders by falling Kd [1], results first:

Row | Kd [1] [nM] | koff [1] [s⁻¹] | kon [1] [M⁻¹ s⁻¹] | Kd (human Ang-2-RBD-Fc [2]) [nM] | koff (human Ang-2-RBD-Fc [3]) [s⁻¹] | kon (human Ang-2-RBD-Fc [3]) [M⁻¹ s⁻¹] | Binder
6 | 7 | 7.26e-05 | 10500 | 4 | 0.00505 | 1.38e+06 | Ang2VEGF-0475 (bispecific antibody, human IgG1, kappa, CrossMAb CH1-CL, knob-into-hole with S354C/Y349C) light 1: QPGLTQPPSVSVAPGQTARITCGGNNIGSKSVHWYQQKPGQAPVLVVYDDSDRPSGIPERFSGSNSGNTATLTISRVEAGDEADYYCQVWDSSSDHYVFGTGTKVTVLRTVAAPSVFIFPPSDEELKSGTASVVCLLNNFYPREAKVQWKVDNALQSGNSQESVTEQDSKDSTYSLSSTLTLSKADYEKHKVYACEVTHQGLSSPVTKSFNRGEC heavy 1: not shown light 2: DIQMTQSPSSLSASVGDRVTITCSASQDISNYLNWYQQKPGKAPKVLIYFTSSLHSGVPSRFSGSGSGTDFTLTISSLQPEDFATYYCQQYSTVPWTFGQGTKVEIKSSASTKGPSVFPLAPSSKSTSGGTAALGCLVKDYFPEPVTVSWNSGALTSGVHTFPAVLQSSGLYSLSSVVTVPSSSLGTQTYICNVNHKPSNTKVDKKVEPKSC heavy 2: not shown
7 | 4 | 8.01e-05 | 18600 | 3 | 0.031 | 1.06e+07 | Ang2VEGF-0466 (bispecific antibody, human IgG1, kappa, CrossMAb CH1-CL, knob-into-hole with S354C/Y349C; also called Ang2VEGF-0466-0002) light 1: QPGLTQPPSVSVAPGQTARITCGGNNIGSKSVHWYQKKPGQAPVLVVYDDSDRPSGIPERFSGSNSGNTATLTISRVEAGDEADYYCQVWDSSSDHYVFGTGTKVTVLRTVAAPSVFIFPPSDKKLKSGTASVVCLLNNFYPREAKVQWKVDNALQSGNSQESVTEQDSKDSTYSLSSTLTLSKADYEKHKVYACEVTHQGLSSPVTKSFNRGEC heavy 1: not shown light 2: DIQMTQSPSSLSASVGDRVTITCSASQDISNYLNWYQKKPGKAPKVLIYFTSSLHSGVPSRFSGSGSGTDFTLTISSLQPEDFATYYCQQYSTVPWTFGQGTKVEIKSSASTKGPSVFPLAPSSKSTSGGTAALGCLVKDYFPEPVTVSWNSGALTSGVHTFPAVLQSSGLYSLSSVVTVPSSSLGTQTYICNVNHKPSNTKVDKKVEPKSC heavy 2: not shown
